Measured values published in US20230037682A1.

Target: CD3 peptide
Assay: SPR (Biacore); 25 °C

Substance: J6MO_SP34 (sp34)
- Kd: 13.9 nM
